What is called Kd is a measure of binding affinity in units of concentration. Low readings indicate a tighter complex, high ones a looser complex. The koff is the rate constant with which the complex falls apart. The low end stands for slow dissociation, the high end for fast dissociation. Usually kon stands for the second-order rate constant of association. Higher therefore signals fast association.

In experiment [1] the target is T1, extracellular domain (ECD) of human TrkA protein, N-terminal flag tag and C-terminal His tag (PHA) (human, UniProt P04629 33-423).
T1 construct: Made in 293-F cells and purified by IMAC; also called TrkA ECD protein; TrkA (ECD); not shown: flag tag at the N-terminus (after the signal peptide); His tag at the C-terminus
As to the kind of experiment: BLI (ForteBio). (Biolayer interferometry detects binding as a change in optical thickness at a sensor tip.)

The target of experiment [2] is human TrkA on CellSensor TrkA-NFAT-bla CHO-K1 cells (human, UniProt P04629 33-796). As to the kind of experiment: cell-based or functional assay.
Experiment [3] concerns the target T1, extracellular domain (ECD) of human …. Put plainly: affinity after affinity maturation; method not stated in Example 5.
The target is the same in experiment [4]. Put plainly: BLI (Octet Red384), as in Example 4. Here is the method: The bio-layer interferometry (BLI) method was used to determine the affinities of the antibodies, employing Octet Red384. Briefly, anti-human Fc-coated biosensor AHQ tips (ForteBio) were put into PBS with 0.1% w/v bovine serum albumin and 0.05% Tween-20 for a minimum of 10 min in the pre-wetting plate. The purified antibodies (100 nM in PBS with 0.1% bovine serum albumin and 0.05% Tween-20 (assay buffer)) were captured on AHQ biosensors (ForteBio) at a level of about 1 nm. The loaded biosensors were washed with an assay buffer to remove any unbound protein. Then, the association rates, dissociation rates and response were measured, using an antigen of 100 nM (in PBS with 0.1% bovine serum albumin and 0.05% Tween-20).
Two rounds of humanizations were further performed. […] In the second round, many other variants were further constructed (including several mutations in the CDR sequences). Quickchange based site-directed mutagenesis or overlap PCR were performed to create expression plasmid of new versions of 2nd round humanized antibodies. All recombinant antibodies were expressed and purified as described in Example 1, then measured antigen binding affinity using BLI technology with the Octet Red384 instrument as mentioned above. To compare the functional activity of humanized antibodies with chimeric antibodies, NFAT assay was also performed.

For experiment [5] the target is unchanged. Put plainly: SPR (BIAcore T200), antibody on protein G chip, PHA 0.625-20 nM injected. The procedure: The binding kinetics and affinities of the humanized antibodies were determined using a BIAcoreT200™ SPR system. Approximately 30 RU of the humanized antibody was immobilized on a protein G sensor chip and serial 2-fold dilutions of the PHA (0.625-20 nM) in 1×HBS-EP+ buffer were injected over the antibody-bound surface at a flow rate of 30 μl/min.
A general note: In SPR one partner is held on a chip, and binding of the other changes the refractive index at the surface.

T1 sequence (P04629 33-423): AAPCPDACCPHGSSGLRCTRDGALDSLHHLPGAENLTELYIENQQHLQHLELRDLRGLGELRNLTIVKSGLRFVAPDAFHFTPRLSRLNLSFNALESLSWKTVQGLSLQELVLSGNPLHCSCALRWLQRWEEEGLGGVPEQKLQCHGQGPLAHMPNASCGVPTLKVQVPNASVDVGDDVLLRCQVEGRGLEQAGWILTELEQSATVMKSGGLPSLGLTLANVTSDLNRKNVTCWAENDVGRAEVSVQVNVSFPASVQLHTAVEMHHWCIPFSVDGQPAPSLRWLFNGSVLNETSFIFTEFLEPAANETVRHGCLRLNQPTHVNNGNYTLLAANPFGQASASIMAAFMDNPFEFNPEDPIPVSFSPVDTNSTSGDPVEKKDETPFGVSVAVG
Chain of human TrkA on CellSensor TrkA-NFAT-bla CHO-K1 cells (P04629 33-796 limits assumed, form in doubt): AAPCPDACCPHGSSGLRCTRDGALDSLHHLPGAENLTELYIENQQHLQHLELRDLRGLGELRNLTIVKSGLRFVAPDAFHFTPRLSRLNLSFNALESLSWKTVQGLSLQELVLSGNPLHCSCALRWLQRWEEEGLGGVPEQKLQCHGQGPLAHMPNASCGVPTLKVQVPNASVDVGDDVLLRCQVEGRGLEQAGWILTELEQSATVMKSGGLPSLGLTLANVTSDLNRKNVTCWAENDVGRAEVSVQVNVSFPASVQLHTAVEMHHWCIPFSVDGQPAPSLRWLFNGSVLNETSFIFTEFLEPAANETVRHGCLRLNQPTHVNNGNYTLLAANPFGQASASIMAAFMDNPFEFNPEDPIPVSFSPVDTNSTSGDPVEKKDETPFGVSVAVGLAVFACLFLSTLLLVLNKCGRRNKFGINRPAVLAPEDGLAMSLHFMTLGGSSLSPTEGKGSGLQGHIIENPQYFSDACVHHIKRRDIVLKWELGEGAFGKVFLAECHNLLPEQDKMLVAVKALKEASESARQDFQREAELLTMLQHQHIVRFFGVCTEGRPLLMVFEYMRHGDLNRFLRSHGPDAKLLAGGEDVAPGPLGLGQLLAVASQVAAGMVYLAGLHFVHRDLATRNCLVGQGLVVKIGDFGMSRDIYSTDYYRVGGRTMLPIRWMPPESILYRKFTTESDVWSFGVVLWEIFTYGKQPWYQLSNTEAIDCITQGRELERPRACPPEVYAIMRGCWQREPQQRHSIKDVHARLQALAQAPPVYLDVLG

B1: PHD29 (antibody, V domains shown)
VH: QVQLVQSGAEVKKPGASVKVSCKASGYTFTTYWMHWVRQAPGQGLEWIGTIYPGNSDTSFAQKFQGRVTLTRDTSTSTAYMELSSLRSEDTAVYYCTRFYFEDWYFDVWGQGTTVTVSS
VL: DIQMTQSPSSLSASVGDRVTITCRASSSISWLYWFQQKPGKAPKPLIYYTSSLGSGVPSRFSGSGSGTDYTLTISSLQPEDFATYYCQQWHSYPPTFGGGTKVEIK
Consider B1, for which, in experiment [1], binding was put at a Kd of 11.9 nM, the koff was 0.00441 s⁻¹ and the kon is 371000 M⁻¹ s⁻¹.

B2: PHD49-05 (antibody, V domains shown)
VH: QVQLVQSGAEVKKPGSSVKVSCKASGYTFSSHWIQWVRQAPGQGLEWIGAIYPGDDDTIYTQKFQGRATITTDKSTSTAYMELSSLRSEDTAVYYCARNYDYQAWFAYWGQGTLVTVSS
VL: DIQMTQSPSSLSASVGDRVTITCRASSSVSYLYWYQQKPGKAPKPLIYLTSSLASGVPSRFSGSGSGTDYTLTISSLQPEDFATYYCQQWSSNPLTFGQGTKLEIK
For the molecule B2, in experiment [2], the “NFAT IC50” value was found to be 170 nM. In experiment [3], this molecule displayed a dissociation constant Kd of 0.583 nM, an off-rate constant (koff) of 0.000174 s⁻¹ and a kon of 299000 M⁻¹ s⁻¹.

B3: PHD49 (antibody, V domains shown)
VH: QVQLVQSGAEVKKPGSSVKVSCKASGFTFSSYWIQWVRQAPGQGLEWIGAIYTGDGDTIYTQKFQGRATITTDESTSTAYMELSSLRSEDTAVYYCARNYHYQAWFDYWGQGTLVTVSS
VL: DIQMTQSPSSLSASVGDRVTITCRASSSVSYLYWYQQKPGKAPKPLIYLTSSLASGVPSRFSGSGSGTDYTLTISSLQPEDFATYYCQQWSSNPLTFGQGTKLEIK
For B3, in experiment [2], the “NFAT IC50” value was 266 nM. In experiment [3], this molecule returned a dissociation constant (Kd) of 0.174 nM, a koff of 5.21e-05 s⁻¹ and a kon of 300000 M⁻¹ s⁻¹.

B4: PHD22 (antibody, V domains shown)
VH: QVQLVQSGAEVKKPGASVKVSCKASGYTFTEYWMHWVRQAPGQGLEWIGTIYPGNSDTSYAQKFQGRVTLTRDTSTSTAYMELSSLRSEDTAVYYCTRFYFEDWYFDVWGQGTTVTVSS
VL: DIQMTQSPSSLSASVGDRVTITCRASSSISWLYWFQQKPGKAPKPLIYYTSTLGSGVPSRFSGSGSGTDYTLTISSLQPEDFATYYCQQWHSYPPTFGGGTKVEIK
On to B4, for which, in experiment [1], the Kd was determined as 23.8 nM, the off-rate (koff) turned out to be 0.0113 s⁻¹ and the on-rate (kon) was 473000 M⁻¹ s⁻¹.

B5: PHD49-11 (antibody, IgG4, V domains shown)
VH: QVQLVQSGAEVKKPGSSVKVSCKASGYTFSSYWMQWVRQAPGQGLEWIGAIYPGDDDTIYTQKFKGRATITADKSTSTAYMELSSLRSEDTAVYYCARNYDYQAWFAYWGQGTLVTVSS
VL: DIQMTQSPSSLSASVGDRVTITCRASSSVSYLYWYQQKPGKAPKPWIYLTSNLASGVPSRFSGSGSGTDYTLTISSLQPEDFATYYCQQWSSNPLTFGQGTKLEIK
Consider B5, for which, in experiment [2], the “NFAT IC50” value is 269 nM. In experiment [4], this molecule yielded a Kd of 10.6 nM, a koff of 0.00207 s⁻¹ and a kon of 196000 M⁻¹ s⁻¹.

B6: PHD30 (antibody, V domains shown)
VH: QVQLVQSGAEVKKPGASVKVSCKASGYTFTEYWMHWVRQAPGQGLEWIGTIYPGNSDSSFAQKFQGRVTLTRDTSTSTAYMELSSLRSEDTAVYYCTRFYYEDWYFDVWGQGTTVTVSS
VL: DIQMTQSPSSLSASVGDRVTITCRASSSISYLYWFQQKPGKAPKPLIYRTSSLGSGVPSRFSGSGSGTDYTLTISSLQPEDFATYYCQQYHSYPPTFGGGTKVEIK
In experiment [1], B6 displayed a Kd of 7.23 nM, a koff of 0.00351 s⁻¹ and a kon of 486000 M⁻¹ s⁻¹.

B7: PHD49-21 (antibody, V domains shown)
VH: QVQLVQSGAEVKKPGSSVKVSCKASGFTFSSYWIQWVRQAPGQGLEWIGAIYTGDGDTIYTQKFQGRATITTDESTSTAYMELSSLRSEDTAVYYCARNYHYQAWFDYWGQGTLVTVSS
VL: DIQMTQSPSSLSASVGDRVTITCRASSSVSYLYWYQQKPGKAPKPLIYLTSDLASGVPSRFSGSGSGTDYTLTISSLQPEDFATYYCQQWSSNPLTFGQGTKLEIK
For the molecule B7, in experiment [2], the “NFAT IC50” value is 124 nM. In experiment [3], this molecule yielded a dissociation constant Kd of 0.259 nM, a dissociation rate constant (koff) of 9.51e-05 s⁻¹ and a kon of 367000 M⁻¹ s⁻¹.

B8: PHD48-08 (antibody, IgG4, V domains shown)
VH: QVQLVQSGAEVKKPGASVKVSCKASGYTFTTYWMHWVRQAPGQGLEWIGTIYPGNSDSSNAQKFQGRVTLTADTSTSTAYMELSSLRSEDTAVYYCTRFYYEDWYFDVWGQGTTVTVSS
VL: DIQMTQSPSSLSASVGDRVTITCRASSSVSYLYWFQQKPGKAPKPLIYRTSNLASGVPSRFSGSGSGTDYTLTISSLQPEDFATYYCQQYHSYPPTFGGGTKVEIK
For the molecule B8, the “NFAT IC50” value in experiment [2] was 188 nM. In experiment [5], this molecule returned a Kd of 2.77 nM, a koff of 0.00045 s⁻¹ and an association rate constant (kon) of 163000 M⁻¹ s⁻¹. Moreover, in experiment [4], the Kd was determined as 1.38 nM, the dissociation rate constant (koff) came out at 0.000331 s⁻¹ and the kon was determined as 240000 M⁻¹ s⁻¹.

B9: PHD28 (antibody, V domains shown)
VH: QVQLVQSGAEVKKPGASVKVSCKASGYTFTTYWMHWVRQAPGQGLEWIGTIYPGNSDTSLAQKFQGRVTLTRDTSTSTAYMELSSLRSEDTAVYYCTRFYFEDWYFDVWGQGTTVTVSS
VL: DIQMTQSPSSLSASVGDRVTITCRASSSISWLYWFQQKPGKAPKPLIYYTSSLGSGVPSRFSGSGSGTDYTLTISSLQPEDFATYYCQQWHSYPPTFGGGTKVEIK
In experiment [1], B9 registered a Kd of 18.4 nM, a koff of 0.00764 s⁻¹ and an on-rate constant (kon) of 415000 M⁻¹ s⁻¹.

B10: PHD48 (antibody, V domains shown)
VH: QVQLVQSGAEVKKPGASVKVSCKASGYTFTTYWMHWVRQAPGQGLEWIGTIYPGNSDSSNAQKFQGRVTLTRDTSTSTAYMELSSLRSEDTAVYYCTRFYYEDWYFDVWGQGTTVTVSS
VL: DIQMTQSPSSLSASVGDRVTITCRASSSVSYLYWFQQKPGKAPKPLIYRTSNLASGVPSRFSGSGSGTDYTLTISSLQPEDFATYYCQQYHSYPPTFGGGTKVEIK
notes: also called full-length PHD48 antibody
On to B10, for which, in experiment [2], the “NFAT IC50” value worked out at 66.5 nM. Moreover, in experiment [5], the dissociation constant Kd was 1.87 nM, the off-rate (koff) is 0.000413 s⁻¹ and the kon was 220000 M⁻¹ s⁻¹.

B11: PHD25 (antibody, V domains shown)
VH: QVQLVQSGAEVKKPGASVKVSCKASGYTFTTYWMHWVRQAPGQGLEWIGTIYPGNSDTSFAQKFQGRVTLTRDTSTSTAYMELSSLRSEDTAVYYCTRFYFEDWYFDVWGQGTTVTVSS
VL: DIQMTQSPSSLSASVGDRVTITCRASSSISWLYWFQQKPGKAPKPLIYYTSTLGSGVPSRFSGSGSGTDYTLTISSLQPEDFATYYCQQWHSYPPTFGGGTKVEIK
Consider B11, for which, in experiment [1], the Kd stood at 12.3 nM, the koff worked out at 0.00471 s⁻¹ and the kon was 383000 M⁻¹ s⁻¹.

B12: PHD24 (antibody, V domains shown)
VH: QVQLVQSGAEVKKPGASVKVSCKASGYTFTTYWMHWVRQAPGQGLEWIGTIYPGNSDTSLAQKFQGRVTLTRDTSTSTAYMELSSLRSEDTAVYYCTRFYFEDWYFDVWGQGTTVTVSS
VL: DIQMTQSPSSLSASVGDRVTITCRASSSISWLYWFQQKPGKAPKPLIYYTSTLGSGVPSRFSGSGSGTDYTLTISSLQPEDFATYYCQQWHSYPPTFGGGTKVEIK
Consider B12, for which, in experiment [1], the Kd came out at 11.6 nM, the koff came to 0.00518 s⁻¹ and the kon amounted to 446000 M⁻¹ s⁻¹.

B13: PHD26 (antibody, V domains shown)
VH: QVQLVQSGAEVKKPGASVKVSCKASGYTFTEYWMHWVRQAPGQGLEWIGTIYPGNSDTSYAQKFQGRVTLTRDTSTSTAYMELSSLRSEDTAVYYCTRFYFEDWYFDVWGQGTTVTVSS
VL: DIQMTQSPSSLSASVGDRVTITCRASSSISWLYWFQQKPGKAPKPLIYYTSSLGSGVPSRFSGSGSGTDYTLTISSLQPEDFATYYCQQWHSYPPTFGGGTKVEIK
For the molecule B13, in experiment [1], the dissociation constant (Kd) worked out at 16.6 nM, the off-rate constant (koff) was 0.00811 s⁻¹ and the kon worked out at 490000 M⁻¹ s⁻¹.

These data come from patent US20240002516A1 (4B TECHNOLOGIES SUZHOU, published 2024).
